From US20240116985A1, “STAPLED PEPTIDES AND METHODS THEREOF” (priority 2020, published 2024)
One block for each binder: values may come before it. Starred links: 1 amine or outer side, 2 acyl side, 3 side chain; linkers in the order of their positions; H or OH if unused. Positions of bridges follow the written chain, without caps; N, C: chain ends. Non-standard residues stand in square brackets, D forms with d. Primed or numbered codes have the meaning given here. No end group written: not given here. *: point of attachment. PyrS2″ = (S)-3-amino-1-((pent-4-en-1-yloxy)carbonyl)pyrrolidine-3-carboxylic acid (stapling residue), C=CCCCOC(=O)N1CC[C@@](N[*:1])(C(=O)[*:2])C1; B5(4) = 2,2-bis(4-pentenyl)glycine = 2-amino-2-(pent-4-en-1-yl)hept-6-enoic acid (stitching residue), C=CCCCC(CCCC=C)(N[*:1])C(=O)[*:2]; B5(5) = 2,2-bis(4-pentenyl)glycine, 2-amino-2-(pent-4-en-1-yl)hept-6-enoic acid (stitching residue), C=CCCCC(CCCC=C)(N[*:1])C(=O)[*:2]; PyrS2 = (S)-3-amino-1-((pent-4-en-1-yloxy)carbonyl)pyrrolidine-3-carboxylic acid, C=CCCCOC(=O)N1CC[C@@](N[*:1])(C(=O)[*:2])C1; SPip2 = 4-amino-1-((pent-4-en-1-yloxy)carbonyl)piperidine-4-carboxylic acid, C=CCCCOC(=O)N1CCC(N[*:1])(C(=O)[*:2])CC1; SPip3 = 4-amino-1-((hex-5-en-1-yloxy)carbonyl)piperidine-4-carboxylic acid, C=CCCCCOC(=O)N1CCC(N[*:1])(C(=O)[*:2])CC1; SPip1 = 4-amino-1-((but-3-en-1-yloxy)carbonyl)piperidine-4-carboxylic acid, C=CCCOC(=O)N1CCC(N[*:1])(C(=O)[*:2])CC1; B5(3) = 2,2-bis(4-pentenyl)glycine (stitching residue), C=CCCCC(CCCC=C)(N[*:1])C(=O)[*:2]; B5 = 2-amino-2-(pent-4-en-1-yl)hept-6-enoic acid, C=CCCCC(CCCC=C)(N[*:1])C(=O)[*:2]; NdiMeButC = N-terminal 4-(dimethylamino)butanoyl, CN(C)CCCC(=O)*; Phe(3-CF3) = N[C@@H](Cc1cccc(C(F)(F)F)c1)C(=O)O; Phe(4-CF3) = N[C@@H](Cc1ccc(C(F)(F)F)cc1)C(=O)O; Phe(3-COOH) = N[C@@H](Cc1cccc(C(=O)O)c1)C(=O)O; Phe(2-CF3) = N[C@@H](Cc1ccccc1C(F)(F)F)C(=O)O; Phe(2-Cl) = N[C@@H](Cc1ccccc1Cl)C(=O)O; Phe(2-F) = N[C@@H](Cc1ccccc1F)C(=O)O; Bta = N[C@@H](Cc1csc2ccccc12)C(=O)O; αAllylPro = C=CC[C@@]1(C(=O)O)CCCN1; hPhe = N[C@@H](CCc1ccccc1)C(=O)O; tBuAla = CC(C)(C)C[C@H](N)C(=O)O; 3Thi = N[C@@H](Cc1ccsc1)C(=O)O; Octanoyl = CCCCCCCC(=O)*

Experiments:
[1] = molecular target: full-length beta-Catenin (Uniprot ID P35222) (Homo sapiens (Human)) (UniProt P35222); test: fluorescence polarization competition; full-length beta-catenin, competitor 5FAM-TCF4(10-53) probe
Target sequence in this assay (P35222 whole entry, one chain of several): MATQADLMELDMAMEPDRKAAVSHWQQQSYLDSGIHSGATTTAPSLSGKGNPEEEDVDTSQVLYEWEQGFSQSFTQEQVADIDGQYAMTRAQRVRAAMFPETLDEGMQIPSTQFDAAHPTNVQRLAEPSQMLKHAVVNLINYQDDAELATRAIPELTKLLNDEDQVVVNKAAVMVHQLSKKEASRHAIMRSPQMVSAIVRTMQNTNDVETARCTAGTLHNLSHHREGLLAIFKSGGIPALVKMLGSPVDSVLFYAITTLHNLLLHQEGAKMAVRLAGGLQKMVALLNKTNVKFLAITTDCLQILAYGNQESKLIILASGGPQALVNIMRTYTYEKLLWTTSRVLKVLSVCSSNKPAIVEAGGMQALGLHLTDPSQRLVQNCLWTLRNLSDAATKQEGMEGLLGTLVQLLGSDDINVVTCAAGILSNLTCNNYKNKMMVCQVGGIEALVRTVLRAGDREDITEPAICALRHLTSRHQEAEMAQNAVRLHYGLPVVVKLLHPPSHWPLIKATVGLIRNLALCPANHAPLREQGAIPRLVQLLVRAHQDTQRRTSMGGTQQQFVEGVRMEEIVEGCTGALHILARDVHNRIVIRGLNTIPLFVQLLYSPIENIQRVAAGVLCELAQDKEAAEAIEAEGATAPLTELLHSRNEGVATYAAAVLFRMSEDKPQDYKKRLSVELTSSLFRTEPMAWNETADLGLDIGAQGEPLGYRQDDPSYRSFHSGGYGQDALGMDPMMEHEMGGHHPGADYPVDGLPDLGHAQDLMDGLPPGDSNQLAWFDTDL

[2] = molecular target: full-length beta-Catenin (Uniprot ID P35222) (Homo sapiens (Human)) (UniProt P35222); test: fluorescence polarization competition; full-length beta-catenin with 5FAM-TCF4(10-53) probe, peptide titrated
Target sequence in this assay (P35222 whole entry, one chain of several): as above

[3] = molecular target: full-length beta-Catenin (Uniprot ID P35222) (Homo sapiens (Human)) (UniProt P35222); test: fluorescence polarization competition; displaces 5FAM-TCF4(10-53) from full-length beta-catenin
Target sequence in this assay (P35222 2-781 limits assumed): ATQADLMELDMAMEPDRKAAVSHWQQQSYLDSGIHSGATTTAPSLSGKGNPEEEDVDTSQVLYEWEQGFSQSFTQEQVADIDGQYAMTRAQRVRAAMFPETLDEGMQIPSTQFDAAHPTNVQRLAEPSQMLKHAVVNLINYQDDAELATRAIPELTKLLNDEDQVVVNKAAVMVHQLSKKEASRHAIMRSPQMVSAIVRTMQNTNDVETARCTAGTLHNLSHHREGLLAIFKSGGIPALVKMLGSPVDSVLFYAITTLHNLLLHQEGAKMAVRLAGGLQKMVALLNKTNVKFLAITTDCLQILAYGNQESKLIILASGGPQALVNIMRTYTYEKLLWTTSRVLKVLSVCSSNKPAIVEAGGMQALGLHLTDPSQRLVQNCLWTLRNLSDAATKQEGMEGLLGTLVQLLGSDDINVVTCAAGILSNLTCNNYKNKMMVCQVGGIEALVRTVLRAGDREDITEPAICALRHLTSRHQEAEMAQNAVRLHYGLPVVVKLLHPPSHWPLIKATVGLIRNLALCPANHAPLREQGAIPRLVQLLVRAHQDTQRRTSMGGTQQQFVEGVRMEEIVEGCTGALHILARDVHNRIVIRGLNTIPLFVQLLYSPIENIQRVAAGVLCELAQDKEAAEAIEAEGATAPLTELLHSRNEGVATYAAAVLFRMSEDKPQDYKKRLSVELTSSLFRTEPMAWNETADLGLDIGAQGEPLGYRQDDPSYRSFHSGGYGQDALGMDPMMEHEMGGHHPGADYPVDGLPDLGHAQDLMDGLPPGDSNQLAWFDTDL

[4] = molecular target: Bcat-Halo (UniProt P35222); test: NanoBRET absolute IC50 in HEK293 cells; Bcat-Halo, competitor TCF4-Luc
[5] = molecular target: full-length beta-Catenin (Uniprot ID P35222) (Homo sapiens (Human)) (UniProt P35222); test: fluorescence polarization competition; full-length beta-catenin, competitor 5FAM-TCF4 10-53
Target sequence in this assay (P35222 whole entry, one chain of several): as the sequence (P35222 whole entry, one chain of several) above

[6] = molecular target: full-length beta-Catenin (Uniprot ID P35222) (Homo sapiens (Human)) (UniProt P35222); test: fluorescence polarization competition; full-length beta-catenin with 5FAM-TCF4(10-53) probe as competitor
Target sequence in this assay (P35222 2-781 limits assumed): as the sequence (P35222 2-781 limits assumed) above

[7] = molecular target: full-length beta-Catenin (Uniprot ID P35222) (Homo sapiens (Human)) (UniProt P35222); test: FP competition; full-length beta-catenin, competitor 5FAM-TCF4(10-53)
Target sequence in this assay (P35222 whole entry, one chain of several): as the sequence (P35222 whole entry, one chain of several) above

[8] = molecular target: Bcat-Halo (UniProt P35222); test: NanoBRET Abs IC50, Bcat-Halo/TCF4-Luc in HEK293 cells
[9] = molecular target: full-length beta-Catenin (Uniprot ID P35222) (Homo sapiens (Human)) (UniProt P35222); test: fluorescence polarization competition; 10 nM full-length beta-catenin + 10 nM 5FAM-TCF4 10-53 as competitor probe
Target sequence in this assay (P35222 2-781 limits assumed): as the sequence (P35222 2-781 limits assumed) above

[10] = molecular target: beta-catenin (Homo sapiens (Human)) (UniProt P35222); test: fluorescence polarization competition; full-length beta-catenin with 5FAM-TCF4(10-53) probe as competitor
[11] = molecular target: full-length beta-Catenin (Uniprot ID P35222) (Homo sapiens (Human)) (UniProt P35222); test: fluorescence polarization competition; full-length beta-catenin, 5FAM-TCF4 10-53 probe as competitor
Target sequence in this assay (P35222 whole entry, one chain of several): as the sequence (P35222 whole entry, one chain of several) above

Chain of beta-catenin (Homo sapiens (Human)) (P35222 whole entry): as the sequence (P35222 whole entry, one chain of several) above
Chain of Bcat-Halo (P35222 whole entry): as the sequence (P35222 whole entry, one chain of several) above

EC50 [1]: 520 nM
IC50 [2]: 520 nM
B1: I-1065 (peptide)
peptide: Ac-[αAllylPro]D[tBuAla][B5(3)]DDAAFL[PyrS2″][Phe(2-Cl)][Bta]S-NH2
modifications: staple 1-4, 4-11; not fully specified; printed as Ac-PL3-Asp-Npg-B5-Asp-Asp-Ala-Ala-Phe-Leu-PyrS2-2C1F-BztA-Ser-NH2

EC50 [3]: 33 nM
IC50 [4]: 13700 nM
IC50 [5]: 33 nM
B2: I-1022 (peptide)
peptide: Ac-[αAllylPro]D[tBuAla][B5(5)]DNAAFT[PyrS2″][Phe(2-F)][Bta]Q-NH2
modifications: staple 1-4, 4-11

IC50 [6]: 48 nM
EC50 [7]: 48 nM
B3: I-1354 (peptide)
peptide: NdiMeButC-[αAllylPro]D[tBuAla][B5(4)]DDAAFS[PyrS2″]F[Bta]S-NH2
modifications: staple 1-4, 4-11

EC50 [3]: 5 nM
IC50 [4]: 11500 nM
IC50 [5]: 5 nM
IC50 [8]: 11500 nM
B4: I-1021 (peptide)
peptide: Ac-[αAllylPro]D[tBuAla][B5(5)]DDAAFT[PyrS2″][Phe(2-F)][Bta]Q-NH2
modifications: staple 1-4, 4-11

IC50 [4]: 10400 nM
EC50 [9]: 15 nM
IC50 [5]: 15 nM
B5: I-1032 (peptide)
peptide: Ac-[αAllylPro]D[tBuAla][B5(5)]DDAAFS[PyrS2″][Phe(2-Cl)][Bta][dT]-NH2
modifications: staple 1-4, 4-11

EC50 [1]: 414 nM
IC50 [2]: 414 nM
B6: I-1064 (peptide)
peptide: Ac-[αAllylPro]D[tBuAla][B5(3)]DDAAFL[PyrS2][Phe(2-Cl)][Bta]S-NH2
modifications: staple 1-4, 4-11; not fully specified; printed as Ac-PL3-Asp-Npg-B5-Asp-Asp-Ala-Ala-Phe-Leu-PyrS2-2C1F-BztA-Ser-NH2

EC50 [1]: 920 nM
IC50 [2]: 920 nM
B7: I-1069 (peptide)
peptide: Ac-[αAllylPro]D[tBuAla][B5(3)]DDAAFL[PyrS2″][Phe(2-Cl)][Bta]T-NH2
modifications: staple 1-4, 4-11; also: staple stereoisomer: later eluting HPLC peak

EC50 [1]: 517 nM
IC50 [2]: 517 nM
B8: I-1067 (peptide)
peptide: Ac-[αAllylPro]D[tBuAla][B5(3)]DEAAFL[PyrS2″][Phe(2-Cl)][Bta]S-NH2
modifications: staple 1-4, 4-11; not fully specified; printed as Ac-PL3-Asp-Npg-B5-Asp-Glu-Ala-Ala-Phe-Leu-PyrS2-2C1F-BztA-Ser-NH2

EC50 [10]: 7 nM
IC50 [4]: 7100 nM
IC50 [1]: 7 nM
B9: I-1437 (peptide)
peptide: Ac-[αAllylPro]D[tBuAla][B5(5)]DEAAFL[PyrS2″][3Thi][Bta]Q-NH2
modifications: staple 1-4, 4-11

IC50 [6]: 9 nM
EC50 [7]: 9 nM
B10: I-1365 (peptide)
peptide: Ac-[αAllylPro]D[tBuAla][B5(4)]DDAAF[Phe(4-CF3)][PyrS2][3Thi][Bta]Q-NH2
modifications: staple 1-4, 4-11

EC50 [1]: 471 nM
IC50 [2]: 471 nM
B11: I-1063 (peptide)
peptide: Ac-[αAllylPro]D[tBuAla][B5(3)]DEAAFL[PyrS2][Phe(2-Cl)][Bta]Q-NH2
modifications: staple 1-4, 4-11

IC50 [6]: 258 nM
EC50 [7]: 258 nM
B12: I-1351 (peptide)
peptide: [αAllylPro]D[tBuAla][B5(4)]DDAAFF[PyrS2″][hPhe][Bta]Q-NH2
modifications: staple 1-4, 4-11

EC50 [10]: 24 nM
IC50 [4]: 9500 nM
IC50 [1]: 24 nM
B13: I-1443 (peptide)
peptide: Ac-[αAllylPro]D[tBuAla][B5(4)]DSAAFL[PyrS2″][3Thi][Bta]Q-NH2
modifications: staple 1-4, 4-11

IC50 [4]: 8600 nM
EC50 [9]: 10 nM
IC50 [5]: 10 nM
B14: I-1033 (peptide)
peptide: Ac-[αAllylPro]D[tBuAla][B5(5)]DDAAFT[PyrS2″][Phe(2-Cl)][Bta][dT]-NH2
modifications: staple 1-4, 4-11

IC50 [6]: 9 nM
EC50 [7]: 9 nM
B15: I-1364 (peptide)
peptide: Ac-[αAllylPro]D[tBuAla][B5(4)]DDAAF[Phe(3-CF3)][PyrS2][3Thi][Bta]Q-NH2
modifications: staple 1-4, 4-11

IC50 [4]: 16600 nM
EC50 [9]: 29 nM
IC50 [5]: 29 nM
B16: I-1036 (peptide)
peptide: Ac-[αAllylPro]D[tBuAla][B5(5)]DEAAFS[PyrS2″][Phe(2-Cl)][Bta][dT]-NH2
modifications: staple 1-4, 4-11

IC50 [11]: 273 nM
B17: I-2587 (peptide)
peptide: Ac-[αAllylPro]D[tBuAla][B5]D[Phe(3-COOH)]QAFL[SPip3][Phe(2-CF3)][Bta]A-NH2
modifications: staple 1-4, 4-11; not fully specified; printed as Ac-PL3-Asp-Npg-B5-Asp-3COOHF-Gln-Ala-Phe-Leu-SPip3-2F3MeF-BztA-Ala-NH2

IC50 [11]: 345 nM
B18: I-2586 (peptide)
peptide: Ac-[αAllylPro]D[tBuAla][B5]D[Phe(3-COOH)]QAFL[SPip2][Phe(2-CF3)][Bta]A-NH2
modifications: staple 1-4, 4-11; not fully specified; printed as Ac-PL3-Asp-Npg-B5-Asp-3COOHF-Gln-Ala-Phe-Leu-SPip2-2F3MeF-BztA-Ala-NH2; also: later-eluting staple isomer composition

EC50 [1]: 950 nM
IC50 [2]: 950 nM
B19: I-1068 (peptide)
peptide: Ac-[αAllylPro]D[tBuAla][B5(3)]DDAAFL[PyrS2″][Phe(2-Cl)][Bta]T-NH2
modifications: staple 1-4, 4-11; not fully specified; printed as Ac-PL3-Asp-Npg-B5-Asp-Asp-Ala-Ala-Phe-Leu-PyrS2-2C1F-BztA-Thr-NH2

IC50 [11]: 602 nM
B20: I-2591 (peptide)
peptide: Ac-[αAllylPro]D[tBuAla][B5]D[Phe(3-COOH)]QAFL[SPip1][3Thi][Bta]A-NH2
modifications: staple 1-4, 4-11; not fully specified; printed as Ac-PL3-Asp-Npg-B5-Asp-3COOHF-Gln-Ala-Phe-Leu-SPip1-3Thi-BztA-Ala-NH2

EC50 [1]: 1020 nM
IC50 [2]: 1020 nM
B21: I-1070 (peptide)
peptide: Ac-[αAllylPro]D[tBuAla][B5(3)]DEAAFL[PyrS2″][Phe(2-Cl)][Bta]T-NH2
modifications: staple 1-4, 4-11; not fully specified; printed as Ac-PL3-Asp-Npg-B5-Asp-Glu-Ala-Ala-Phe-Leu-PyrS2-2C1F-BztA-Thr-NH2

EC50 [10]: 26 nM
IC50 [4]: 20700 nM
IC50 [1]: 26 nM
B22: I-1440 (peptide)
peptide: Ac-[αAllylPro]D[tBuAla][B5(5)]DQAAFL[PyrS2″][3Thi][Bta]Q-NH2
modifications: staple 1-4, 4-11

EC50 [1]: 789 nM
IC50 [2]: 789 nM
B23: I-1066 (peptide)
peptide: Ac-[αAllylPro]D[tBuAla][B5(3)]DEAAFL[PyrS2″][Phe(2-Cl)][Bta]S-NH2
modifications: staple 1-4, 4-11; not fully specified; printed as Ac-PL3-Asp-Npg-B5-Asp-Glu-Ala-Ala-Phe-Leu-PyrS2-2C1F-BztA-Ser-NH2

IC50 [4]: 4400 nM
EC50 [9]: 30 nM
IC50 [5]: 30 nM
B24: I-1037 (peptide)
peptide: Ac-[αAllylPro]D[tBuAla][B5(5)]DEAAFT[PyrS2″][Phe(2-Cl)][Bta][dT]-NH2
modifications: staple 1-4, 4-11

IC50 [11]: 452 nM
B25: I-2585 (peptide)
peptide: Ac-[αAllylPro]D[tBuAla][B5]D[Phe(3-COOH)]QAFL[SPip2][Phe(2-CF3)][Bta]A-NH2
modifications: staple 1-4, 4-11; not fully specified; printed as Ac-PL3-Asp-Npg-B5-Asp-3COOHF-Gln-Ala-Phe-Leu-SPip2-2F3MeF-BztA-Ala-NH2; also: earlier-eluting staple isomer composition

IC50 [6]: 213 nM
EC50 [7]: 213 nM
B26: I-1355 (peptide)
peptide: Octanoyl-[αAllylPro]D[tBuAla][B5(4)]DDAAFS[PyrS2″]F[Bta]S-NH2
modifications: staple 1-4, 4-11
